{"source": "patent US20040228866A1", "about": "“Suppressor genes” (Ludwig Institute for Cancer Research, priority 2000, published 2004)", "molecules": {"B1": {"name": "ASPP1: Apoptosis Stimulating Protein 1, protein of SEQ ID NO: 2, expressed from a transfected plasmid (protein, listed as Homo sapiens)", "chain": "MMPMILTVFLSNNEQILTEVPITPETTCRDVVEFCKEPGEGSCHLAEVWRGNERPIPFDHMMYEHLQIWGPRREEVKFFLRHEDSPTENSEQGGRQTQEQRTQRNVINVPGDKRTEYGVGNPRVELTLSELQDMAARQQQQIENQQQMLVAKEQRLHFLKQQERRQQQSISENEKLQKLKERVEAQENKLKKIRAMRGQVDYSKIMNGNLSAEIERFSAMFQEKKQEVQTAILRVDQLSQQLEDLKKGKLNGFQSYNGKLTGPAAVELKRLYQELQIRNQLNQEQNSKLQQQKELLNKRNMEVAMMDKRISELRERLYGKKIQLNRVNGTSSPQSPLSTSGRVAAVGPYIQVPSAGSFPVLGDPIKPQSLSIASNAAHGRSKSANDGNWPTLKQNSSSSVKPVQVAGADWKDPSVEGSVKQGTVSSQPVPFSALGPTEKPGIEIGKVPPPIPGVGKQLPPSYGTYPSPTPLGPGSTSSLERRKEGSLPRPSAGLPSRQRPTLLPATGSTPQPGSSQQIQQRISVPPSPTYPPAGPPAFPAGDSKPELPLTVAIRPFLADKGSRPQSPRKGPQTVNSSSIYSMYLQQATPPKNYQPAAHSALNKSVKAVYGKPVLPSGSTSPSPLPFLHGSLSTGTPQPQPPSESTEKEPEQDGPAAPADGSTVESLPRPLSPTKLTPIVHSPLRYQSDADLEALRRKLANAPRPLKKRSSITEPEGPGGPNIQKLLYQRFNTLAGGMEGTPFYQPSPSQDFMGTLADVDNGNTNANGNLEELPPAQPTAPLPAEPAPSSDANDNELPSPEPEELICPQTTHQTAEPAEDNNNNVATVPTTEQIPSPVAEAPSPGEEQVPPAPLPPASHPPATSTNKRTNLKKPNSERTGHGLRVRFNPLALLLDASLEGEFDLVQRIIYEVEDPSKPNDEGITPLHNAVCAGHHHIVKFLLDFGVNVNAADSDGWTPLHCAASCNSVHLCKQLVESGAAIFASTISDIETAADKCEEMEEGYIQCSQFLYGVQEKLGVMNKGVAYALWDYEAQNSDELSFHEGDALTILRRKDESETEWWWARLGDREGYVPKNLLGLYPRIKPRQRTLA"}}, "key": {"p53 [1]": {"target": "T1, p53 (Homo sapiens, UniProt P04637)", "T1 construct": "expressed in transfected cells", "experiment": "Transient luciferase reporter assay of p53 transactivation function in Saos-2 cells", "type": "cell-based", "procedure": "(§1) The amount of luciferase expression was determined as previously described in Samuels-Lev et al. (Mol. Cell 8:781-94, 2001, herein incorporated by reference).\n(§2) The amount of transactivation function was determined as described in Example 4.\n(§3) To determine the amount of protein expression, Saos-2 cells (5×10^5) were plated 24 hours prior to transfection in 6 cm dishes. […] To determine the amount of gene activation, after transfection, the cells were lysed in Reporter Lysis Buffer 16-24 hours post-wash and assayed using the Luciferase Assay kit (Promega, Wis.). The fold activation of a particular reporter was determined by the activity of the transfected plasmid above the activity of vector alone.\n(§4) The expression level of transfected proteins was detected using 40 μg of the respective lysates using the antibodies V5, DX.5410, DO1, 4A4 and p73. […] Results were derived from at least three independent experiments."}, "p53 [2]": {"target": "T2, p53 (Homo sapiens, UniProt P04637, R181C)", "T2 construct": "expressed in transfected cells", "experiment": "Transient luciferase reporter assay of p53 transactivation function in Saos-2 cells", "type": "cell-based", "conditions": "Bax-luc, FIG. 6B", "procedure": "as §1, §2, §3, §4"}, "p63γ": {"target": "T3, p63γ (Homo sapiens, UniProt Q9H3D4)", "T3 construct": "expressed in transfected cells; host or cells: Saos-2", "T3 sequence (Q9H3D4 1-487 isoform Q9H3D4-5)": "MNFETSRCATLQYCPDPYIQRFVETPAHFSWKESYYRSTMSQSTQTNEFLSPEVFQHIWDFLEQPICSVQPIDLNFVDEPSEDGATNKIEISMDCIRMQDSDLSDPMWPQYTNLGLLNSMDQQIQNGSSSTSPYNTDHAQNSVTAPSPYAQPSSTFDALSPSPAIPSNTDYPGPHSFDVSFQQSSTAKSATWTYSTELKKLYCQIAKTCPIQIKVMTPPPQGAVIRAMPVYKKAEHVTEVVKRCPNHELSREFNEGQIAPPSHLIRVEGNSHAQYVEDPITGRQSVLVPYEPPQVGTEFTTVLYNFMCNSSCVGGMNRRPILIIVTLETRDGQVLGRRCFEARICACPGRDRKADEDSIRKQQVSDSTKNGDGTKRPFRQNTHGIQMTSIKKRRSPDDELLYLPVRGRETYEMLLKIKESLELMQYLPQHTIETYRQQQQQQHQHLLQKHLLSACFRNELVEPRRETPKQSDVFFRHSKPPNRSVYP", "experiment": "Transient luciferase reporter assay of p63γ transactivation function", "type": "cell-based", "conditions": "FIG. 14C", "procedure": "as §3, §4"}, "Saos-2 cells": {"tested_on": "Saos-2 cells", "experiment": "Apoptosis by flow cytometry (CD20-gated, sub-G1 DNA content) in transfected Saos-2 cells", "type": "cell-based", "procedure": "Apoptosis was identified by the expression of the co-transfected cell surface marker CD20, as described in Samuels-Lev et al. (Mol. Cell 8:781-94, 2001, herein incorporated by reference).\nThe number of apoptotic cells was determined using the methods described in Example 6.\nCells (10^6) were plated 24-48 hours prior to transfection in 10 cm plates. Cells were grown in DMEM supplemented with 10% FCS and transfected with 2 μg of a plasmid expressing CD20 as a transfection marker. Increasing amounts of ASPP1 and ASPP2 were transfected (7.5 μg, 15 μg and 25 μg). 36 hours after the transfection, both attached and floating cells were harvested and analysed using flow cytometry as follows. The transfected cells were gated based on the expression of CD20. The percentage of apoptotic cells was measured by the accumulation of cells with a sub-G1 DNA content derived from at least three individual experiments.\nThe transfected cells were analyzed by flow cytometry as described in Example 6."}, "p73α": {"target": "T4, p73α (Homo sapiens, UniProt O15350)", "T4 construct": "expressed in transfected cells; host or cells: H1299 and Saos-2; part of the results from in vitro translation", "T4 sequence (O15350 1-636)": "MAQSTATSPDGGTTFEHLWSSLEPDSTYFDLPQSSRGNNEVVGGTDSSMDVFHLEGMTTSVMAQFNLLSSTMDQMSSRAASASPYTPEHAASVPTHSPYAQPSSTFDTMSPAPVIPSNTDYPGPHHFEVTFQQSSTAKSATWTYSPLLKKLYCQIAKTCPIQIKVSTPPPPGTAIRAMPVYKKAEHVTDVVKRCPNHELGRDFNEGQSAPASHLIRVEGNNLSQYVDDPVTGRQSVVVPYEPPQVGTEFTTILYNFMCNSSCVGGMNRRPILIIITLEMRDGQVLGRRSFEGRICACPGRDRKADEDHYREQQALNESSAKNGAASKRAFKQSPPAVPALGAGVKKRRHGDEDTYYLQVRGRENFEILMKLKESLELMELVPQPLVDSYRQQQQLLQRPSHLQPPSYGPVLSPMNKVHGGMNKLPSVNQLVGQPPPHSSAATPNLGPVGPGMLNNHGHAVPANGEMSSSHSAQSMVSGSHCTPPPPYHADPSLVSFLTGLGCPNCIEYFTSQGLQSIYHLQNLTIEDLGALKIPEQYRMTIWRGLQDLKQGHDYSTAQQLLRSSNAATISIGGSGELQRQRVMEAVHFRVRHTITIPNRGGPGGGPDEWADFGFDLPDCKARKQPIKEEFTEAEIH", "experiment": "Co-immunoprecipitation with p73α (in vitro translated; transfected H1299 and Saos-2 cells)", "type": "binding", "procedure": "V5-tagged ASPP1 and ASPP2 proteins were in vitro translated with cold methionine using the TNT T7 Quick coupled Transcription/Translation System (Promega). Cell lysates were incubated at 30° C. for 1 hour and then immunoprecipitated with anti-V5 antibody on protein G agarose beads.\nThe agarose beads were added to the binding reactions and incubated on a rotating wheel at 4° C. for 16 hours. The beads were then washed with PBS. The bound proteins were released in SDS gel sample buffer and analysed by 10% SDS-polyacrylamide gel electrophoresis (PAGE). The gels were wet transferred on to Protran nitrocellulose membrane and the resulting blots were first incubated with primary antibody and subsequently with the appropriate secondary HRP conjugated antibody (Dako). The blot was exposed to hyperfilm following the use of ECL substrate solution (Amersham Life Science).\nCells were transfected with 1 μg of p63γ or p73α in the presence or absence of 10 μg of ASPP1 or ASPP2. Cell lysate (1 mg) was immunoprecipitated with an antiASPP1 or ASPP2 antibody (see Example 2 and 7). The immunoprecipitates were separated on an SDS gel and the presence of p63 or p73 on the immunoblots detected by mouse monoclonal antibodies 4A4 (Santa Cruz) and ER-15 (Neomarker) to p63 or p73, respectively. The presence of ASPP1 or ASPP2 was detected with antibodies YX.7 and DX5410, respectively.\nIn some methods, larger amounts of cell lysate (2 mg) were immunoprecipitated with rabbit antibodies ASPP1.88 or BP77 to ASPP1 and ASPP2, respectively. The expression of ASPP1, ASPP2, p63γ and p73α was detected as described above."}}}
{"molecule": "B1", "values": [{"measurement": "stimulation of the transactivation function of p53 on the Bax promoter", "setting": "p53 [1]; Example 16, FIGS. 14A and 14B", "value": "around 6 fold"}, {"measurement": "stimulation of the promoter activity of mdm2 and cyclin G", "setting": "p53 [1]; co-expression with p53", "value": "very modest stimulation"}, {"measurement": "promoter activity of PIG-3", "setting": "p53 [1]; transient transfection reporter assay", "value": "specifically stimulated"}, {"measurement": "transactivation function of mutant p53 181C on the Bax gene promoter", "setting": "p53 [2]", "value": "unable to stimulate"}, {"measurement": "transactivation function of p63γ on the mdm2 promoter", "setting": "p63γ", "value": "failed to stimulate"}, {"measurement": "effect on apoptotic function of p53 mutants 181L and 181C", "setting": "Saos-2 cells; FIG. 6A", "value": "failed to enhance the apoptotic function of either p53 mutant"}, {"measurement": "transfected cells that die of apoptosis", "setting": "Saos-2 cells; co-expressed with p53, Example 6, FIGS. 4A and 4C", "value": "Approximately 50%"}, {"measurement": "increase in percentage of cells that die of apoptosis with E2F1", "setting": "Saos-2 cells; co-expression with E2F1, FIG. 4B", "value": "only an additive increase"}, {"measurement": "apoptotic function of p63γ and p73α", "setting": "Saos-2 cells; co-expression, FIG. 15", "value": "enhanced the apoptotic function of p63γ and p73α"}, {"measurement": "apoptosis when expressed alone", "setting": "Saos-2 cells; no p53 co-expressed", "value": "lower level of apoptosis"}, {"measurement": "effect on apoptosis induced by p53H175-L", "setting": "Saos-2 cells; transcriptionally inactive, mitochondria-targeted mutant p53, FIG. 9A", "value": "failed to enhance the apoptotic function of p53H175-L"}, {"measurement": "interaction with p73α in vitro", "setting": "p73α; in vitro translated proteins, FIGS. 12B and 12C", "value": "co-immunoprecipitated"}, {"measurement": "interaction with p73α in vivo", "setting": "p73α; transfected cells, FIGS. 13B and 13D", "value": "co-immunoprecipitated transfected p63γ and p73α"}]}
